Test results taken from paper PMC9636267 (2022).
Where two headings read alike, the source gives them in different places.

B1: HCoV-229E S ectodomain (17–1115 aa), 229E S trimer (domain or fragment)
chain: QTTNGLNTSYSVCNGCVGYSENVFAVESGGYIPSDFAFNNWFLLTNTSSVVDGVVRSFQPLLLNCLWSVSGLRFTTGFVYFNGTGRGDCKGFSSDVLSDVIRYNLNFEENLRRGTILFKTSYGVVVFYCTNNTLVSGDAHIPFGTVLGNFYCFVNTTIGNETTSAFVGALPKTVREFVISRTGHFYINGYRYFTLGNVEAVNFNVTTAETTDFCTVALASYADVLVNVSQTSIANIIYCNSVINRLRCDQLSFDVPDGFYSTSPIQSVELPVSIVSLPVYHKHTFIVLYVDFKPQSGGGKCFNCYPAGVNITLANFNETKGPLCVDTSHFTTKYVAVYANVGRWSASINTGNCPFSFGKVNNFVKFGSVCFSLKDIPGGCAMPIVANWAYSKYYTIGSLYVSWSDGDGITGVPQPVEGVSSFMNVTLDKCTKYNIYDVSGVGVIRVSNDTFLNGITYTSTSGNLLGFKDVTKGTIYSITPCNPPDQLVVYQQAVVGAMLSENFTSYGFSNVVELPKFFYASNGTYNCTDAVLTYSSFGVCADGSIIAVQPRNVSYDSVSAIVTANLSIPSNWTTSVQVEYLQITSTPIVVDCSTYVCNGNVRCVELLKQYTSACKTIEDALRNSARLESADVSEMLTFDKKAFTLANVSSFGDYNLSSVIPSLPTSGSRVAGRSAIEDILFSKLVTSGLGTVDADYKKCTKGLSIADLACAQYYNGIMVLPGVADAERMAMYTGSLIGGIALGGLTSAVSIPFSLAIQARLNYVALQTDVLQENQKILAASFNKAMTNIVDAFTGVNDAITQTSQALQTVATALNKIQDVVNQQGNSLNHLTSQLRQNFQAISSSIQAIYDRLDTIQADQQVDRLITGRLAALNVFVSHTLTKYTEVRASRQLAQQKVNECVKSQSKRYGFCGNGTHIFSIVNAAPEGLVFLHTVLLPTQYKDVEAWSGLCVDGTNGYVLRQPNLALYKEGNYYRITSRIMFEPRIPTMADFVQIENCNVTFVNISRSELQTIVPEYIDVNKTLQELSYKLPNYTVPDLVVEQYNQTILNLTSEISTLENKSAELNYTVQKLQTLIDNINSTLVDLKWLNRVETYIKWP

Tests used:
Experiment in all cases: SPR
R14 [1] = target: R14
R17 [2] = target: R17
S10 [3] = target: S10
R10 [4] = target: R10
S02 [5] = target: S02
S15 [6] = target: S15
S08 [7] = target: S08
R07 [8] = target: R07
R14 [9] = target: R14; remark: listed apart in the source
R17 [10] = target: R17; remark: listed apart in the source
S10 [11] = target: S10; remark: listed apart in the source
R10 [12] = target: R10; remark: listed apart in the source
S02 [13] = target: S02; remark: listed apart in the source
S15 [14] = target: S15; remark: listed apart in the source
S08 [15] = target: S08; remark: listed apart in the source
R07 [16] = target: R07; remark: listed apart in the source
[17] = target: B1
[18] = target: T1, HCoV-229E RBD (294–435 aa) (human coronavirus 229E, UniProt P15423 294-435)
T1 chain: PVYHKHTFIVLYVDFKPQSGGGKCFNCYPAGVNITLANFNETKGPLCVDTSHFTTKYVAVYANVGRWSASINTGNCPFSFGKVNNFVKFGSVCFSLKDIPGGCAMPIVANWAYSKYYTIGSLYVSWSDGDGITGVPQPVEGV

[19] = target: B1
[20] = target: T2, HCoV-229E S1 subunit (17–560 aa) (human coronavirus 229E, UniProt P15423 17-560)
T2 chain: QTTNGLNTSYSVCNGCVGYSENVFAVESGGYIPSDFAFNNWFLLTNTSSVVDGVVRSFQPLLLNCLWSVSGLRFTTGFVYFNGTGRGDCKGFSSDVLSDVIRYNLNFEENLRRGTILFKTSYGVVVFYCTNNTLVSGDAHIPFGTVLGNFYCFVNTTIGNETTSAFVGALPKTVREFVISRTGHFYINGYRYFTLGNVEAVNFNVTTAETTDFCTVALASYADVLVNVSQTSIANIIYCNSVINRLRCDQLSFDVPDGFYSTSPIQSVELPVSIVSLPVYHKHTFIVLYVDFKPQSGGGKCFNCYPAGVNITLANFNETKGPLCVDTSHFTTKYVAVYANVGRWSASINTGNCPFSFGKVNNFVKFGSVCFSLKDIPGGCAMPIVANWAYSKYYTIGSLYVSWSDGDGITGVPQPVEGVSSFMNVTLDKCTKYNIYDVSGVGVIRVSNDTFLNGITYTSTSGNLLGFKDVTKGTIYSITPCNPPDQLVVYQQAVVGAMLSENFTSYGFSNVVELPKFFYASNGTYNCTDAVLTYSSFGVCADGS

[21] = target: T1, HCoV-229E RBD (294–435 aa)
[22] = target: T2, HCoV-229E S1 subunit (17–560 aa)
[23] = target: T1, HCoV-229E RBD (294–435 aa)
[24] = target: B1
[25] = target: T1, HCoV-229E RBD (294–435 aa)
[26] = target: B1
[27] = target: T1, HCoV-229E RBD (294–435 aa)
[28] = target: B1

For B1, the koff (R14 [1]) was 0.0039 s⁻¹, the koff (R17 [2]) was 0.0024 s⁻¹ and the Kd (S10 [3]) was 0.28 nM. For the same binder, the koff (S10 [3]) was 0.0018 s⁻¹, the Kd (R10 [4]) was 0.43 nM and the koff (R10 [4]) was 0.0012 s⁻¹. For the same binder, the Kd (S02 [5]) was 0.75 nM, the koff (S02 [5]) was 0.0035 s⁻¹ and the Kd (S15 [6]) was 0.44 nM. The koff (S15 [6]) was 0.00098 s⁻¹, the koff (S08 [7]) was 0.0054 s⁻¹ and the koff (R07 [8]) was 0.0011 s⁻¹. The Kd (R14 [9]) was 2.7 nM, the Kd (R17 [10]) was 2.4 nM and the Kd (S10 [11]) was 0.3 nM. For the same binder, the Kd (R10 [12]) was 0.4 nM, the Kd (S02 [13]) was 0.8 nM and the Kd (S15 [14]) was 0.4 nM. The Kd (S08 [15]) was 2.4 nM and the Kd (R07 [16]) was 2 nM.

B2: Fab C04 (Fab, V domains shown)
VH: EVQLVESGGGLVQPGGSLRLSCAASGFNISSSYIHWVRQAPGKGLEWVASIYSSYGYTYYADSVKGRFTISADTSKNTAYLQMNSLRAEDTAVYYCARWWASVGGAGGGLDYWGQGTLVTVSS
VL: DIQMTQSPSSLSASVGDRVTITCRASQSVSSAVAWYQQKPGKAPKLLIYSASSLYSGVPSRFSGSRSGTDFTLTISSLQPEDFATYYCQQGYGWLITFGQGTKVEIK
In the case of B2, the koff [17] is reported as 0.0064 s⁻¹, the Kd [18] is reported as 2.9 nM and the Kd [19] is reported as 4.4 nM. For the same binder, the Kd [20] was 7.3 nM, the koff [21] was 0.0055 s⁻¹ and the koff [22] was 0.007 s⁻¹.

B3: Fab S11 (Fab, V domains shown)
VH: EVQLVESGGGLVQPGGSLRLSCAASGFNISSSYIHWVRQAPGKGLEWVASIYSSYGYTYYADSVKGRFTISADTSKNTAYLQMNSLRAEDTAVYYCARWWITFGGAGGGLDYWGQGTLVTVSS
VL: DIQMTQSPSSLSASVGDRVTITCRASQSVSSAVAWYQQKPGKAPKLLIYSASSLYSGVPSRFSGSRSGTDFTLTISSLQPEDFATYYCQQGYAWRNTFGQGTKVEIK
Binder B3 has a koff [23] of 0.00081 s⁻¹, a koff [24] of 0.00054 s⁻¹ and a Kd [25] of 0.2 nM. It also gave a Kd [26] of 0.4 nM, a Kd [27] of 0.21 nM and a Kd [28] of 0.38 nM.
